We go through 38 sequences from the supplement of paper PMC9732359.

± gives the uncertainty stated by the source.

The data set is described as follows: protein stability index of a GFP-peptide fusion (yeast GPS) (PSI 1-4); higher = more stable; sorted into four equal gates, so the index is relative within each strain. The procedure, abridged:
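Tiled 17-residue yeast protein peptides were fused downstream of GFP in a plasmid that also expresses Cherry, and the pooled library was carried in yeast. Mid-log cultures in leucine-free medium were sorted into four equal gates by GFP/Cherry fluorescence ratio, and plasmids from each gate were PCR-amplified and Illumina-sequenced, with reads assigned to strains by barcodes. The protein stability index for each peptide was each gate's read frequency times its gate number, summed.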

In turn, MTMQVAVPRDELGRSNY [FAS1] returned a protein stability index (doa10∆) of 2.7 ± 0.085, a protein stability index (pdr5∆) of 3 ± 0.11, a protein stability index (san1∆) of 2.99 ± 0.047 and a protein stability index (ubr1∆) of 2.99 ± 0.092.

For the sequence ASKSKKKFNMGKEFEAR [RPC53], the protein stability index by setting is: (doa10∆) 3.33 ± 0.085; (pdr5∆) 3.14 ± 0.12; (san1∆) 3.27 ± 0.073; (ubr1∆) 3.4 ± 0.081.

For LRLKLFLYEILSSLKSF [SRB8], the protein stability index was found to be 1.53 ± 0.063 (doa10∆), 2.29 ± 0.082 (pdr5∆), 1.81 ± 0.082 (san1∆) and 2.11 ± 0.085 (ubr1∆).

As to APYRKQIISNAHNKPSL [YAR002W/NUP60], the protein stability index came out at 2.17 ± 0.073 (doa10∆), 2.47 ± 0.081 (pdr5∆), 2 ± 0.1 (san1∆) and 2.36 ± 0.085 (ubr1∆).

In turn, KFEPLYPREEEEDYNEF [PRP8] had a protein stability index (doa10∆) of 3.35 ± 0.15, a protein stability index (pdr5∆) of 3.31 ± 0.13, a protein stability index (san1∆) of 3.12 ± 0.072 and a protein stability index (ubr1∆) of 3.37 ± 0.096.

On to QRITIPNVCNMKQYRDF [PRP28], for which the protein stability index reads like this: (doa10∆) 2.85 ± 0.18; (pdr5∆) 2.55 ± 0.092; (san1∆) 2.07 ± 0.11; (ubr1∆) 2.58 ± 0.11.

Take FIDHHAAIRQPTRYVLI [POP1]: the protein stability index (doa10∆) came out at 1.72 ± 0.066, the protein stability index (pdr5∆) is 2.08 ± 0.073, the protein stability index (san1∆) came out at 1.77 ± 0.098 and the protein stability index (ubr1∆) was found to be 1.4 ± 0.047.

Regarding NLNDAGLALQLFKKLKE [RPN2], the protein stability index by setting is: (pdr5∆) 2.69 ± 0.23; (san1∆) 2.51 ± 0.24; (ubr1∆) 3.19 ± 0.28.

As to REPDFWVIRKQRRTNNS [MED6], the protein stability index runs as follows: (doa10∆) 3.51 ± 0.15; (pdr5∆) 3.29 ± 0.09; (san1∆) 2.97 ± 0.097; (ubr1∆) 2.93 ± 0.096.

On to LAEEKIRAAGGVVELIA [RPL28], for which the protein stability index came to 2.919 ± 0.025 (doa10∆), 3.072 ± 0.024 (pdr5∆), 2.935 ± 0.023 (san1∆) and 2.931 ± 0.02 (ubr1∆).

For the sequence ANKTNLIESLNTIRQNV [YML103C/NUP188], the protein stability index was determined as 1.57 ± 0.053 (doa10∆), 1.83 ± 0.053 (pdr5∆), 1.73 ± 0.12 (san1∆) and 1.77 ± 0.063 (ubr1∆).

With SLKKVDEIKAQRKEIKD [SMC4], the protein stability index is, setting by setting: (pdr5∆) 2.94 ± 0.18; (san1∆) 3.29 ± 0.16; (ubr1∆) 3.4 ± 0.25.

Take TNNMEKIIEDLRQKHEF [SMC2]: the protein stability index reads like this: (doa10∆) 3.12 ± 0.055; (pdr5∆) 2.9 ± 0.046; (san1∆) 3.13 ± 0.033; (ubr1∆) 3.15 ± 0.033.

In the case of DELILEAKERYTDRDQD [NNF1], the protein stability index was found to be 3.68 ± 0.27 (pdr5∆), 3.58 ± 0.1 (san1∆) and 3.52 ± 0.2 (ubr1∆).

In the case of NNWFSLPGDMLAVCDEL [SIN4], the protein stability index came out at 2.33 ± 0.073 (doa10∆), 2.21 ± 0.079 (pdr5∆), 1.73 ± 0.13 (san1∆) and 1.85 ± 0.067 (ubr1∆).

ANLLPARQFGYVILTTS [RPS22A]: the protein stability index (doa10∆) was determined as 1.29 ± 0.053, the protein stability index (pdr5∆) was found to be 1.35 ± 0.044, the protein stability index (san1∆) turned out to be 1.2 ± 0.094 and the protein stability index (ubr1∆) was found to be 1.11 ± 0.046.

QRDFRKHGAVHLSTYLK [RPL21A]: the protein stability index turned out to be 2.6 ± 0.046 (doa10∆), 2.41 ± 0.042 (pdr5∆), 2.48 ± 0.054 (san1∆) and 2.71 ± 0.036 (ubr1∆).

As for MSLSVAEKSYLYDSLAS [RRP42], the protein stability index (pdr5∆) stood at 1.64 ± 0.18.

On to HTEDEQIEKKKICRGRM [SIR4], for which the protein stability index runs as follows: (doa10∆) 3.52 ± 0.17; (pdr5∆) 3.38 ± 0.12; (san1∆) 3.48 ± 0.13; (ubr1∆) 3.16 ± 0.083.

On to PQQSGKKLLINKDASLA [DPB4], for which the protein stability index was 2.2 ± 0.062 (doa10∆), 1.99 ± 0.064 (pdr5∆), 1.81 ± 0.1 (san1∆) and 2.22 ± 0.055 (ubr1∆).

MLWNLAAKKAMYTLSAQ [ASC1]: the protein stability index by setting is: (doa10∆) 2.79 ± 0.069; (pdr5∆) 2.45 ± 0.062; (san1∆) 2.06 ± 0.073; (ubr1∆) 2.18 ± 0.077.

Turning to PIFNYIFTEKIYKSIFN [YJL039C/NUP192], the protein stability index (doa10∆) stood at 1.33 ± 0.034, the protein stability index (pdr5∆) worked out at 1.46 ± 0.04, the protein stability index (san1∆) turned out to be 1.41 ± 0.074 and the protein stability index (ubr1∆) turned out to be 1.16 ± 0.039.

As to GESTVESEKLVTPEDVM [RPC82], the protein stability index stood at 3.15 ± 0.09 (doa10∆), 3.25 ± 0.12 (pdr5∆) and 3.15 ± 0.11 (san1∆).

With TDLRFQSSAIGALQESV [HHT1], the protein stability index came to 1.32 ± 0.13 (doa10∆), 1.41 ± 0.13 (pdr5∆), 1.32 ± 0.17 (san1∆) and 1.32 ± 0.23 (ubr1∆).

For the sequence PASNILRRTTQRVFDET [YDL116W/NUP84], the protein stability index runs as follows: (doa10∆) 2.66 ± 0.13; (pdr5∆) 2.66 ± 0.061; (san1∆) 2.77 ± 0.13; (ubr1∆) 2.62 ± 0.1.

Take LNEIKEHKIVVLGNSRG [RPN14]: the protein stability index (doa10∆) stood at 3.57 ± 0.19 and the protein stability index (san1∆) amounted to 3.18 ± 0.15.

With SNGLLSIVLLLLSQFGI [YML103C/NUP188], the protein stability index is 1.51 ± 0.12 (doa10∆), 1.53 ± 0.083 (pdr5∆), 1.41 ± 0.18 (san1∆) and 2.19 ± 0.079 (ubr1∆).

For VEQTAEVTIEDALKVVL [RPS12], the protein stability index runs as follows: (doa10∆) 3.34 ± 0.079; (pdr5∆) 3.36 ± 0.078; (san1∆) 3.19 ± 0.049; (ubr1∆) 3.21 ± 0.045.

For the sequence EEEATMTTSAVSPTVGK [YIL149C/MLP2], the protein stability index stood at 3.25 ± 0.046 (doa10∆), 3.3 ± 0.037 (pdr5∆), 3.229 ± 0.029 (san1∆) and 3.2 ± 0.035 (ubr1∆).

For the sequence NATHDEDEFIVQHDQIL [SWP82], the protein stability index amounted to 2.93 ± 0.036 (doa10∆), 3.13 ± 0.032 (pdr5∆), 2.96 ± 0.032 (san1∆) and 3.044 ± 0.023 (ubr1∆).

LLQKMLNLLNYQELFIQ [YML103C/NUP188]: the protein stability index reads like this: (doa10∆) 2.4 ± 0.053; (pdr5∆) 1.47 ± 0.038; (san1∆) 1.38 ± 0.07; (ubr1∆) 1.52 ± 0.036.

As for LLLKKLDNFQKSVEKTM [SMC3], the protein stability index runs as follows: (doa10∆) 2.54 ± 0.2; (pdr5∆) 2.74 ± 0.23; (san1∆) 2.44 ± 0.24; (ubr1∆) 2.88 ± 0.17.

Take QHDKMVDKIFEKVNNNA [SWI1]: the protein stability index amounted to 3.19 ± 0.15 (doa10∆), 2.73 ± 0.081 (pdr5∆), 2.87 ± 0.067 (san1∆) and 2.99 ± 0.041 (ubr1∆).

For the sequence PVLDNPFTNEAHMWPRV [POP3], the protein stability index is 3.26 ± 0.12 (doa10∆), 2.94 ± 0.1 (pdr5∆), 2.99 ± 0.11 (san1∆) and 3.27 ± 0.06 (ubr1∆).

As to MQANTNALRRNLLKDEG [SSN3], the protein stability index runs as follows: (doa10∆) 2.94 ± 0.11; (pdr5∆) 3.1 ± 0.25; (san1∆) 2.98 ± 0.21; (ubr1∆) 3.2 ± 0.27.

As for TKMFEDRREKAERTMSK [SMC2], the protein stability index by setting is: (doa10∆) 3.4 ± 0.14; (pdr5∆) 3.37 ± 0.1; (san1∆) 3.22 ± 0.086; (ubr1∆) 3.54 ± 0.088.

GYCDDIAAMVAQKCGWT [SIR2]: the protein stability index was 1.76 ± 0.11 (doa10∆), 1.9 ± 0.094 (pdr5∆), 2.44 ± 0.16 (san1∆) and 1.74 ± 0.052 (ubr1∆).

On to VKESNNYYSNKSNSTGN [REC8], for which the protein stability index came to 2.44 ± 0.067 (doa10∆), 2.71 ± 0.085 (pdr5∆), 2.56 ± 0.07 (san1∆) and 2.97 ± 0.046 (ubr1∆).
